Columns and labels:
[1] = tested on: human umbilical vein endothelial cells (HUVECs); experiment: Cytotoxicity (EZ-Cytox, TEM morphology) in vascular endothelial cells; type: cell-based; conditions: gold equivalent 10 μM, 24 hours
Experimental: (§1) Specifically, human umbilical vein endothelial cells (HUVECs) and small intestine endothelial cells (Caco-2) were seeded in 96-well plates at a seeding density of 5×10^3 cells for each well and incubated for 24 hours in a CO2 incubator. Next, AuNP, Ce6-AuNP and Lf-PEG-AuNP (gold equivalent concentration of 10 μM) were applied for 24 hours. Next, after washing with PBS buffer, wells were treated with a culture medium containing EZ-Cytox at 37° C. and 5% CO2 for 4 hours. In this case, the absorbance of the medium was measured with a micro-well plate reader at a wavelength of 450 nm, and the results are illustrated in FIGS. 16, 17A and 17B.

[2] = tested on: small intestine endothelial cells (Caco-2); experiment: Cytotoxicity (EZ-Cytox, TEM morphology) in small intestine endothelial cells; type: cell-based, human; conditions: Caco-2, gold equivalent 10 μM, 24 hours
Experimental: as §1

[3] = PTT efficiency and photothermal heating profile under 532 nm PTT laser in vials; type: physicochemical
[4] = 532 nm, 4 W/cm^2, 240 sec, gold equivalent 10 μM

B1: AuNP-Lf: PEGylated Lf-conjugated AuNP (conjugate, UniProt P02788 20-710, looked up)
Lactotransferrin: GRRRSVQWCAVSQPEATKCFQWQRNMRKVRGPPVSCIKRDSPIQCIQAIAENRADAVTLDGGFIYEAGLAPYKLRPVAAEVYGTERQPRTHYYAVAVVKKGGSFQLNELQGLKSCHTGLRRTAGWNVPIGTLRPFLNWTGPPEPIEAAVARFFSASCVPGADKGQFPNLCRLCAGTGENKCAFSSQEPYFSYSGAFKCLRDGAGDVAFIRESTVFEDLSDEAERDEYELLCPDNTRKPVDKFKDCHLARVPSHAVVARSVNGKEDAIWNLLRQAQEKFGKDKSPKFQLFGSPSGQKDLLFKDSAIGFSRVPPRIDSGLYLGSGYFTAIQNLRKSEEEVAARRARVVWCAVGEQELRKCNQWSGLSEGSVTCSSASTTEDCIALVLKGEADAMSLDGGYVYTAGKCGLVPVLAENYKSQQSSDPDPNCVDRPVEGYLAVAVVRRSDTSLTWNSVKGKKSCHTAVDRTAGWNIPMGLLFNQTGSCKFDEYFSQSCAPGSDPRSNLCALCIGDEQGENKCVPNSNERYYGYTGAFRCLAENAGDVAFVKDVTVLQNTDGNNNEAWAKDLKLADFALLCLDGKRKPVTEARSCHLAMAPNHAVVSRMDKVERLKQVLLHQQAKFGRNGSDCPDKFCLFQSETKNLLFNDNTECLARLHGKTTYEKYLGPQYVAGITNLKKCSTSPLLEACEFLRK
modifications: PEGylated gold nanoparticle conjugate
[1]
  cytotoxicity and morphological changes: not detected
[2]
  cytotoxicity and morphological changes: not detected
[3]; 532 nm PTT laser, 4 W/cm^2
  PTT efficiency / heat generation (in words): higher PTT efficiency
[3]; [4]
  Maximum temperature (Tmax): 56.3 ± 0.5 °C
  PTT efficiency (Tmax − T0): 29.6 ± 0.2 °C

Source: US20230173098A1, “NANOPARTICLE COMPLEX FOR ORAL ADMINISTRATION AND USES THEREOF” (IUCF-HYU (Industry-University Cooperation Foundation …, priority 2021, published 2023)
